Assay results reported in US20120039878A1 (ELAN PHARMACEUTICALS, published 2012).
Positions count from the first letter of the chain named.

T1: murine AA amyloid (AA fibrils; amyloid enhancing factor extract, AEF) (mouse)
T1 construct: also called Mouse AA (AEF); murine AA AEF
T1 sequence (P05366 whole entry, looked up): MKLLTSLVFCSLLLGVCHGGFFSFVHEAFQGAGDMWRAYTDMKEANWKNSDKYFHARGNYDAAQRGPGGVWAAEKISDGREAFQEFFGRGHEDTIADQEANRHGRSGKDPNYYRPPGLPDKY

T2: human AA amyloid (human renal AA amyloid extract; AA deposits in human tissue) (human)
T2 construct: also called human AA amyloid extract; human AA amyloid fibrils
T2 sequence (P0DJI8 19-94, looked up): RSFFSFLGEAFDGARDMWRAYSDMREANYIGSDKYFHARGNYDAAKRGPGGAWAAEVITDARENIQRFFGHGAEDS

T3: peptide 66, CGGHEAT
T3 peptide: CGGHEAT

T4: peptide 68, CGGHEDTM
T4 peptide: CGGHEDTM

T5: peptide 70, CGGHEDTMAD
T5 peptide: CGGHEDTMAD

T6: peptide 69, CGGHEDTMA
T6 peptide: CGGHEDTMA

T7: peptide 71, CGGHED
T7 peptide: CGGHED

T8: peptide 65, CGGHADT
T8 peptide: CGGHADT

B1: murine monoclonal antibody 2A4 (ATCC Accession Number PTA-9662) (antibody, V domains shown)
VH: EVQLVESGGRLVQPKGSLKLSCAASGFTFNTYAMYWIRQAPGKGLEWVARIRSKSNNYAIYYADSVKDRFTIFRDDSQSMLYLQMNNLKTEDTAMYYCVRPYSDSFAYWGQGTLVTVSA
VL: DVVMTQTPLSLPVSLGDQASISCRSSQSLVHSTGNTYLHWYLQKPGQSPKLLIYKVSNRFSGVPDRFSGSGSGTYFTLKISRVEAEDLGVYFCSQSTHVPFTFGGGTKLEIK
notes: Murine IgG2b kappa; Used as hybridoma culture supernatant or as protein A-purified mAb; also called mAb 2A4; 2A4.20.44.77
B2: murine monoclonal antibody 8G9 (antibody, mouse IgG2b, V domains shown)
VH: B1 VH
VL: B1 VL
notes: Murine IgG2b kappa; also called mAb 8G9; 8G9.3.4.51.22
B3: murine monoclonal antibody 7D8 (ATCC Accession Number PTA-9468) (antibody, mouse IgG2b, V domains shown)
VH: B1 VH
VL: B1 VL with Q27L
notes: Murine IgG2b kappa; also called mAb 7D8; 7D8.29.19.47
B4: peptide 41, GHEDTIADQE (peptide)
peptide: GHEDTIADQE
notes: also called p41; p#41

Tests used:
[1] = molecular target: T1, murine AA amyloid (AA fibrils; amyloid …); assay: ELISA, hybridoma culture supernatant on murine AA AEF; not corrected for mAb concentration
Text: The interaction of 2A4, 8G9 and 7D8 mAbs with AA amyloid was initially tested by ELISA and the data, given in FIG. 31, analyzed using SigmaPlot (SPSS Inc.). Each point represents the mean±SE (n=3). A culture supernatant from an irrelevant hybridoma was used as a control (Ctrl Culture Sup). […] (In addition, the immunohistochemical reactivity of the day 1 material was greater than the day 2 samples). […] Because of the low signal and high variability found with the culture supernatants and to determine more accurately the relative binding affinity of the mAbs for murine and human AA amyloid fibrils (as well as to provide material for in vivo biodistribution studies) it was necessary to isolate the mAbs by protein A affinity chromatography. The purity of the isolated mAbs was established SDS-PAGE using 10% acrylamide gels under reducing and non-reducing conditions (FIG. 32). Samples in lanes 1-4 treated with mercaptoethanol, lanes 5-9 without. Gel was stained with Coomassie blue: mAb 8G9, lanes 1 and 6; mAb 2A4, lanes 2 and 7; mAb 7D8, lanes 3 and 8; SP2/0 control supernatant, lanes 4 and 9; blank, lane 5. Protein Mr markers (Std) are, form top to bottom: 176, 119, 75, 49, 39, 25 and 19 kDa. The interaction of the purified mAbs with immunizing peptide p#39, control peptide (p#41), murine and human AA extracts were determined by ELISA as described above.

[2] = molecular target: T1, murine AA amyloid (AA fibrils; amyloid …); assay: ELISA, purified mAb on mouse AA amyloid extract (AEF)
Method: (§1) Protein Mr markers (Std) are, form top to bottom: 176, 119, 75, 49, 39, 25 and 19 kDa. The interaction of the purified mAbs with immunizing peptide p#39, control peptide (p#41), murine and human AA extracts were determined by ELISA as described above.
(§2) In contrast, even at the highest concentration of mAb used (100 nM) there was little detectable binding to the p#41 peptide (FIG. 33—Each point represents the mean±SE, (n=3 at each concentration)). […] The calculated EC50 values for the mAbs binding to mouse AA extract were essentially identical to those obtained when the p#39 peptide was used as the substrate (FIG. 34; Table 5). […] Because the EC50 value for 7D8 mAb binding was the lowest of the 3 antibodies tested, Applicants selected this reagent for in vivo co-localization and imaging studies. The 2 amino acid substitutions in the human SAA sequence with respect to the murine protein affected the EC50 values.

[3] = molecular target: T2, human AA amyloid (human renal AA …); assay: ELISA, purified mAb on plate-dried human AA amyloid extract
Method: as §1, §2

[4] = molecular target: T9, synthetic Vλ6 Wil fibrils; assay: SPR (BIAcore), mAb at 6.6 nM over immobilized synthetic Vλ6 Wil fibrils
T9 construct: Fibrillar (aggregated) form, sonicated and amine-coupled to a CM-5 chip (about 16,000 RU); also called immobilized Vλ6 Wil fibrils
Method: Surface plasmon resonance was used to establish the binding kinetics of several monoclonal antibodies with Vλ6 Wil fibrils and monomer. […] The deflection (expressed in RU) during the binding phase was similar for mAbs 7D8 and 2A4 but was 50% lower for 8G9.
(§3) Sensograms were run in HBS-EP buffer from BIAcore at 20 μL/min in the Fc1 (Vλ6 Wil fibrils) minus Fc-2 (control) mode. Samples containing mAb or mAb plus peptide inhibitors were injected (70 μL) and the sensograms collected using the delayed-wash function for 200 sec. Data were analyzed in the BIAevalutation software, using the 1:1 Langmuir model with mass-action correction.

[5] = molecular target: T3, peptide 66, CGGHEAT; assay: BIAcore, antibody binding to peptides
[6] = molecular target: T4, peptide 68, CGGHEDTM; assay: BIAcore, antibody binding to peptides
[7] = molecular target: T5, peptide 70, CGGHEDTMAD; assay: BIAcore, antibody binding to peptides
[8] = molecular target: T6, peptide 69, CGGHEDTMA; assay: BIAcore, antibody binding to peptides
[9] = molecular target: T7, peptide 71, CGGHED; assay: BIAcore, antibody binding to peptides
[10] = molecular target: T8, peptide 65, CGGHADT; assay: BIAcore, antibody binding to peptides
[11] = molecular target: B3; assay: BIAcore competition: peptide p41 in solution with mAb 7D8 (6.6 nM) injected over immobilized Vλ6 Wil fibrils
Method: FIG. 28: Binding kinetics of mAb 7D8 to synthetic Vλ6 Wil fibrils in the presence of the p39 and p41 peptides. The interaction of the mAb 7D8 at 6.6 nM with immobilized Vλ6 Will fibrils was measured by BIAcore in the presence of peptides p39 and p41 at 1 or 20 μg/mL.
To assess the specificity of the reaction and ensure that the binding of the mAbs with the fibrils occurred via the classic F(ab)-antigen interaction (as opposed to Fc-mediated binding or non-specific adsorption), binding data were acquired in the presence of the immunogen peptide (p39) at 20 and 1 μg/mL (FIG. 8). […] In the presence of 20 μg/mL p41 peptide, the binding kinetics for mAb 7D8 with Vλ6 Wil fibrils were identical to 7D8 alone.
as §3

| supernatant dilution after which reactivity is absent [1] | EC50 [2] [nM] | EC50 [3] [nM] | Kd [4] [nM] | binding result [5] | binding result [6] | binding result [7] | binding result [8] | binding result [9] | binding result [10] | binding result [11] | Binder |
| --- | --- | --- | --- | --- | --- | --- | --- | --- | --- | --- | --- |
| ~64 fold dilution (1:x) | 4.09 | 26.4 | ~1 | no binding | no binding | no binding | no binding | – | – | – | B1 |
| ~64 fold dilution (1:x) | 5.64 | 31.7 | ~1 | – | – | – | – | – | – | – | B2 |
| ~64 fold dilution (1:x) | 1.84 | 13.3 | ~1 | no binding | no binding | no binding | no binding | no binding | no binding | – | B3 |
| – | – | – | – | – | – | – | – | – | – | no binding (tested: 20 µg/mL) | B4 |
